Target: T1, β-catenin produced recombinantly in bacteria with N-terminal histidine sequence (Homo sapiens (Human), UniProt P35222 2-781)
T1 construct: Soluble partner in the ELISA (50-100 ng), detected with antibody PA2
T1 sequence: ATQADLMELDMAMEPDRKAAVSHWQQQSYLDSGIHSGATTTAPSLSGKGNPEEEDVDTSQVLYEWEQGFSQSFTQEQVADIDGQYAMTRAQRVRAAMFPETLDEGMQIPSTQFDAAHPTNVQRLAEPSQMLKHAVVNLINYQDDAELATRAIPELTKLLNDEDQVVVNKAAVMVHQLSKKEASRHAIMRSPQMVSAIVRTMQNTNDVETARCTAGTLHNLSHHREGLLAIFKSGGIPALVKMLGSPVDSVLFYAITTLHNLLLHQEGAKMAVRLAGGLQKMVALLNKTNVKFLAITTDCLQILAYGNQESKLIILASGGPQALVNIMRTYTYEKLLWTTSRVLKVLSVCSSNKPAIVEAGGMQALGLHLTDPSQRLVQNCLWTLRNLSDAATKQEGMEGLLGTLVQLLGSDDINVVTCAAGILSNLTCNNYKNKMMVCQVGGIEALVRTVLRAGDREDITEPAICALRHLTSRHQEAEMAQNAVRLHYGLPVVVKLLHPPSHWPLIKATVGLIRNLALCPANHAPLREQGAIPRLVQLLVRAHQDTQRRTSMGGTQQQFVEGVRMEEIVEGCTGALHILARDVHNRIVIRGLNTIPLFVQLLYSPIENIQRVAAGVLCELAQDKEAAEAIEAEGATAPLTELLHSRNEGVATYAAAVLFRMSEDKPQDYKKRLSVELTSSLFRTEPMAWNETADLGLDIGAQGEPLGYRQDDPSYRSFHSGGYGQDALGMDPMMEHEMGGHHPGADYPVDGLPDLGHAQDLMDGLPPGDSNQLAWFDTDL
Assay: competition ELISA, LEF-1 coated, β-catenin in solution, detection with antibody PA2

Question: GGDPELCATDEMIPFKDEGDPQKEK (peptide, UniProt P27782 10-34, looked up, range 10-34; the legend prints 10-34) [synthetic peptide of the minimum binding domain of LEF-1 (10-34)] was tested. Which IC50 did it give?
Answer: Its IC50 is 4 µM.

Source: US7067474B1, “Agents for treating human illnesses based on β-catenin, and the production and use thereof” (Max-Delbruck-Centrum fur Molekulare Medizin, priority 1998, dated 2006)
